According to PMC12319226 (Frontiers in Bioinformatics, 2025):
Residue numbers refer to the chain shown, from its start.

T1: fHbp m001720 (Neisseria meningitidis, engineered fHbp …, point mutant)
T1 chain: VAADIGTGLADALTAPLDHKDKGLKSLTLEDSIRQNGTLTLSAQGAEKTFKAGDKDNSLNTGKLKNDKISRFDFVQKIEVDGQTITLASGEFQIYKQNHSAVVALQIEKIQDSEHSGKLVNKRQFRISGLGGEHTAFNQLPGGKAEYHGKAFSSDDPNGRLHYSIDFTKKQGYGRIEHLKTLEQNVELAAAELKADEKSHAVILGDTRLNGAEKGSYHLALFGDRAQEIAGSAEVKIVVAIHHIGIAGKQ

T2: fHbp m001768 (Neisseria meningitidis, engineered fHbp …, point mutant)
T2 chain: T1 chain with L209Y, N210G, G211Q, I237T, V239E

T3: fHbp m001847 (Neisseria meningitidis, engineered fHbp …, chimera)
T3 chain: T1 chain with L209Y, N210G, G211S, I237T, V239E, A240S

T4: fHbp m002404 (Neisseria meningitidis fHbp v3.28, …, chimera)
T4 chain: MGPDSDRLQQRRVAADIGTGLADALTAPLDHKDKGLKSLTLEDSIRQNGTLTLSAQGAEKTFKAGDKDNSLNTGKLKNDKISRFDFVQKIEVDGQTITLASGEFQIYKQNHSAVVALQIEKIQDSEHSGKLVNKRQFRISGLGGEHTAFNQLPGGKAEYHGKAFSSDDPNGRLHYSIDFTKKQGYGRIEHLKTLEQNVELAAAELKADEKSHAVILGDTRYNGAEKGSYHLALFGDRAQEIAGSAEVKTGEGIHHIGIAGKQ

T5: fHbp m001015 (Neisseria meningitidis fHbp v3.28, …, point mutant)
T5 chain: T4 chain with Y221L, N222G, G223Q, T249S, G250V, E251N, G252A

T6: fHbp m001040 (Neisseria meningitidis fHbp v3.28-based …, point mutant)
T6 chain: T4 chain with Y221L, N222G, G223Q, G250V, E251N

T7: fHbp m001180 (Neisseria meningitidis fHbp v3.28-based …, point mutant)
T7 chain: T4 chain with Y221L, N222G, T249S, G250V, E251V, G252A

T8: fHbp m001200 (Neisseria meningitidis fHbp v3.28-based …, point mutant)
T8 chain: T4 chain with Y221L, N222G, G250V, G252S

T9: fHbp m001211 (Neisseria meningitidis fHbp v3.28-based …, point mutant)
T9 chain: T4 chain with Y221L, N222G, G250D, E251N

B1: mAb 1E6 (human) (antibody, V domains shown)
VH: EVQLVQSGAEVKKPGSSVKVSCKASGGTVIDYPITWVRQAPGQGLEWVGGFVPLFRTSNYGQKFQGRVTITADKSTSTASMELNSLTSEDTAIYYCARGDTAMGPFDYWGQGTLVTVSS
VL: SYVLTQPPSLSVAPGKTATLTCGGNNIAGKTVHWYQQRPGQAPVLVISYDSDRPSGIPERFSGSNSANTATLTISRVEAGDEADYYCQVWDRNSDHWVFGGGTKLTVL
notes: source: Expi293, purified (MabSelect SuRe, SEC); copies: 2 + 2
B2: chimeric antibody h12C1 (antibody, V domains shown)
VH: QVQLQESGPELVKPGASVKISCKASGYSFSDYNMSWVKQSNGKSLEWIGIIDPKYGTINYNQKFKGKATLTVDQASSTAYMQLNSLTSEDSAVYYCVRDYYGSSYFDYWGQGTTLTVSS
VL: DIVLTQSPSSIYASLGERVTLTCKASQDIHNYLNWFQQKPGKSPKTLIYRANRLVDGVPSRFSGGGSGQDYSLTISSLEFEDIGIYYCLQYDEFPPTFGGGTRLEIK
notes: also called humanized 12C1; source: Expi293, purified (MabSelect SuRe, SEC); copies: 2 + 2

Assays:
Assay in all cases: BLI
Settings in all cases: both partners purified
[1] = target: T1, fHbp m001720
[2] = target: T2, fHbp m001768
[3] = target: T3, fHbp m001847
[4] = target: T4, fHbp m002404
[5] = target: T5, fHbp m001015
[6] = target: T6, fHbp m001040
[7] = target: T7, fHbp m001180
[8] = target: T8, fHbp m001200
[9] = target: T9, fHbp m001211

Binder | Kd [1] | koff [1] | kon [1] | Kd [2] | koff [2] | kon [2] | Kd [3] | koff [3] | kon [3] | Kd [4] | koff [4] | kon [4] | Kd [5] | koff [5] | kon [5] | Kd [6] | koff [6] | kon [6] | Kd [7] | koff [7] | further results
B1 | 0.788 nM | 0.000292 s⁻¹ | 370200 ± 1240 M⁻¹ s⁻¹ | 0.538 nM | 0.000175 s⁻¹ | 325000 ± 2320 M⁻¹ s⁻¹ | 0.348 nM | 0.000123 s⁻¹ | 353300 ± 2150 M⁻¹ s⁻¹ | 0.429 nM | 0.000144 s⁻¹ | 336700 ± 1540 M⁻¹ s⁻¹ | 1.11 nM | 0.000418 s⁻¹ | 375100 ± 1120 M⁻¹ s⁻¹ | 0.594 nM | 0.000266 s⁻¹ | 447100 ± 3340 M⁻¹ s⁻¹ | 0.574 nM | 0.000278 s⁻¹ | kon [7]: 485200 ± 1980 M⁻¹ s⁻¹; Kd [8]: 0.219 nM; koff [8]: 0.000303 s⁻¹; kon [8]: 1.385e+06 ± 5610 M⁻¹ s⁻¹; Kd [9]: 0.507 nM; koff [9]: 0.000219 s⁻¹; kon [9]: 431400 ± 2210 M⁻¹ s⁻¹
B2 | 1.04 nM | 0.000368 s⁻¹ | 354900 ± 1290 M⁻¹ s⁻¹ | 5.51 nM | 0.000453 s⁻¹ | 82200 ± 1160 M⁻¹ s⁻¹ | 108 nM | 0.00885 ± 0.000103 s⁻¹ | 81800 ± 5640 M⁻¹ s⁻¹ | 125 nM | 0.01534 ± 0.000107 s⁻¹ | 123000 ± 5460 M⁻¹ s⁻¹ | 187 nM | 0.02355 ± 0.000153 s⁻¹ | 126000 ± 5980 M⁻¹ s⁻¹ | 0.523 nM | 0.000192 s⁻¹ | 368300 ± 1820 M⁻¹ s⁻¹ | 69.9 nM | 0.0158 s⁻¹ | kon [7]: 227000 ± 3250 M⁻¹ s⁻¹; Kd [8]: 0.243 nM; koff [8]: 0.000202 s⁻¹; kon [8]: 830700 ± 4100 M⁻¹ s⁻¹; Kd [9]: 19.8 nM; koff [9]: 0.00753 s⁻¹; kon [9]: 381300 ± 3730 M⁻¹ s⁻¹
